Data taken from patent US9994616B2, “c-Met protein agonist” (The University of Tokyo, priority 2013, dated 2018).
Where two headings read alike, the source gives them in different places. Where a SMILES comes first, the peptide text is derived from it. Bridges are numbered along the chain shown (N, C = ends). Roman numbers before positions name the chains, in order. Where no end group is shown, it is not given here. [ ]: non-standard residue; d: D form. NMeW = CN[C@@H](Cc1c[nH]c2ccccc12)C(=O)O; NMeH = CN[C@@H](Cc1c[nH]cn1)C(=O)O; NMeR = CN[C@@H](CCCNC(=N)N)C(=O)O; NMeF = CN[C@@H](Cc1ccccc1)C(=O)O; NMeE = CN[C@@H](CCC(=O)O)C(=O)O; NMeQ = CN[C@@H](CCC(N)=O)C(=O)O; NMeD = CN[C@@H](CC(=O)O)C(=O)O; NMeN = CN[C@@H](CC(N)=O)C(=O)O; NMeL = CN[C@@H](CC(C)C)C(=O)O; NMeV = CN[C@H](C(=O)O)C(C)C; βAla = NCCC(=O)O

Assays:
c-Met-Fc = c-Met-Fc (Homo sapiens, UniProt P08581); test: Binding ability by surface plasmon resonance (SPR, Biacore); settings: for kon: read-out: ka
Method: Binding ability of the thioether macrocyclic peptide was evaluated by SPR measurement using Biacore (GE Healthcare).
As a sensor chip, Sensor Chip CM5 was used and an anti-IgG antibody was immobilized on a measurement lane and a control lane by using Human Antibody Capture Kit.
On the measurement lane was immobilized c-Met-Fc, while on the control lane was immobilized Fc protein.
As a running buffer, HBS-EP+ buffer containing 0.1% DMSO was used and a dissociation constant of the thioether macrocyclic peptide was calculated at 5 different concentrations by using the single-kinetics method.

[1] = Stability of thioether macrocyclic peptide in human serum pool (LC-MS); type: in vitro ADME; settings: for remaining at 1 h, 1 μM: Table 8, human serum pool
Method: A DMSO solution of the thioether macrocyclic peptide to be evaluated was dissolved in a human serum pool to give a concentration of 1 μM. The human serum pool containing the thioether macrocyclic peptide thus prepared was incubated at 37° C.
After an elapse of the evaluation time, the human serum pool containing the thioether macrocyclic peptide was placed on ice and a peptide serving as an internal standard was added and mixed to give a concentration of 1 μM. The resulting mixture was added to a solid-phase extraction column (Hyper Sep SPE column, Thermo Scientific), washed with a 5% aqueous acetonitrile solution containing 0.1% TFA, and then purified by eluting with a 70% aqueous acetonitrile solution containing 0.1% TFA.
The molecular weight of the purified product was analyzed using LC-MS and the cleavage site in the serum was identified. In addition, the thioether macrocyclic peptide which had remained without being cleaved was quantitatively determined by comparing an amount relative to the internal standard at every incubation time.

c-Met = target: T1, c-Met (Homo sapiens, UniProt P08581); test: Activity of dimeric peptide by ELISA (c-Met phosphorylation level in EHMES-1 cells); type: cell-based; settings: for Activity (c-Met phosphorylation level by ELISA): Table 12, EHMES-1 cells, 10 minutes stimulation; for c-Met phosphorylation: Table 13
T1 construct: endogenous in cells; host or cells: EHMES-1 (human mesothelioma)
Method: Each dimeric peptide was added to human EHMES-1 cells and the mixture was incubated for 10 minutes to stimulate the cells.
As a control experiment, a recombinant human HGF protein was added and the mixture was incubated for 10 minutes to stimulate cells.
A phosphorylation level of c-Met was quantitatively analyzed using ELISA.

[2] = Table 11, monomer and dimeric peptides

T1 sequence (P08581 25-1390): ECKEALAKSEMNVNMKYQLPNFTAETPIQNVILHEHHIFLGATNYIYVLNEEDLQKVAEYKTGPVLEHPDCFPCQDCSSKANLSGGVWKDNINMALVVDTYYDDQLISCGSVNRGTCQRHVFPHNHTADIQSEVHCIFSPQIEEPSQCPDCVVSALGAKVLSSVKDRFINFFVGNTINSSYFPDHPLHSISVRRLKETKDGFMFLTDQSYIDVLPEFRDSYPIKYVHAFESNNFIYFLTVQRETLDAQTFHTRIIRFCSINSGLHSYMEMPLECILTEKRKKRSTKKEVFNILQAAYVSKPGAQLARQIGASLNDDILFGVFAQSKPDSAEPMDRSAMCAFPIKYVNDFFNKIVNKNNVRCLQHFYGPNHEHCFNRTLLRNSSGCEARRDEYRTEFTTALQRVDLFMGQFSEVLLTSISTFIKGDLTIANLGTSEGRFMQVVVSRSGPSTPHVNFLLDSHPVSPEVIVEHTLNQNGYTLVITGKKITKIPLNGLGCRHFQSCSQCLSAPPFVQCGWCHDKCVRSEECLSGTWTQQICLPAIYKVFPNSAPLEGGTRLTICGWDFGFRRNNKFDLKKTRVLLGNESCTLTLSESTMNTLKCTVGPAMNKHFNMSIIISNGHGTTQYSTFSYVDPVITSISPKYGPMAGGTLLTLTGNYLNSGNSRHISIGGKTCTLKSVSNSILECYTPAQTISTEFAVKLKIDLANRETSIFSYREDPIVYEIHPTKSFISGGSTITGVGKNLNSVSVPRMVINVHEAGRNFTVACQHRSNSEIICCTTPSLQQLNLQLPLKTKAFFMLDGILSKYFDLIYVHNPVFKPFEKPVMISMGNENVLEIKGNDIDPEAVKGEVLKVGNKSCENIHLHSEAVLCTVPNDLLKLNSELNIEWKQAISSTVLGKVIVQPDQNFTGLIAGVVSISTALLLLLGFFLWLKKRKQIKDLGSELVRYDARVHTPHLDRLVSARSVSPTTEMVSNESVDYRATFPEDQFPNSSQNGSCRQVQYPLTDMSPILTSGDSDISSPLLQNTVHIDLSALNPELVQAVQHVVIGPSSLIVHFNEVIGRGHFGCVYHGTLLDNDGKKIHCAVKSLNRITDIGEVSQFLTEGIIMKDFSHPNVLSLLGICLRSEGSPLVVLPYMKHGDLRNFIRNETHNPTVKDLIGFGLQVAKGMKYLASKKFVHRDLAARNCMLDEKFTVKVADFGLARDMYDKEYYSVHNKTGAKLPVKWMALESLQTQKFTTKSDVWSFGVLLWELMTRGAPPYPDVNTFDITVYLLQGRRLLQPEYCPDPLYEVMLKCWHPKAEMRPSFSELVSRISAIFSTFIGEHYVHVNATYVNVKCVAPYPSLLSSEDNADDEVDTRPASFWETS
Sequence of c-Met-Fc (P08581 with tags, fused parts or gaps limits assumed): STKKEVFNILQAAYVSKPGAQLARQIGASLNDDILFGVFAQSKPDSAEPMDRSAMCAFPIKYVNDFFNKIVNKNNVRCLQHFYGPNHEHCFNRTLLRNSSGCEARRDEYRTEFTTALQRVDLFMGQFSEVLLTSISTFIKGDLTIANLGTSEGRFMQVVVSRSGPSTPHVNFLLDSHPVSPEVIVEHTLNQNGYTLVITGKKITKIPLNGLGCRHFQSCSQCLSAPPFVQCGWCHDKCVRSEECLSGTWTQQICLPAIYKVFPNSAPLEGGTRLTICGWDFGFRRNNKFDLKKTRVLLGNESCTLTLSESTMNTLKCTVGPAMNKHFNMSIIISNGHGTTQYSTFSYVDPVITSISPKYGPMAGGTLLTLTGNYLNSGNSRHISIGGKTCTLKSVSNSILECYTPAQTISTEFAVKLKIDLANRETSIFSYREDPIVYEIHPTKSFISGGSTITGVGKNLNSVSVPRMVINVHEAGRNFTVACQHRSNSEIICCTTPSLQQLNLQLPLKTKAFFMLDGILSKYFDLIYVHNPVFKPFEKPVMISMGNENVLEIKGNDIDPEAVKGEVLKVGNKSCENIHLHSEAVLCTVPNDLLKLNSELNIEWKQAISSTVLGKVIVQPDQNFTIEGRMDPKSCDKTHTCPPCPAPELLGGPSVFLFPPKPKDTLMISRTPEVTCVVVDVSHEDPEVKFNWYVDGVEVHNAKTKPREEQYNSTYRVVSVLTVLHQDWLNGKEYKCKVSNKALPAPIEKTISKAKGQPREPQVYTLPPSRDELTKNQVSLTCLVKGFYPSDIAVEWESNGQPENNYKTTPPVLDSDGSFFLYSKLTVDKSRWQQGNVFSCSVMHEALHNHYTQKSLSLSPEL
Sequence of c-Met-Fc (P08581 25-307 limits assumed): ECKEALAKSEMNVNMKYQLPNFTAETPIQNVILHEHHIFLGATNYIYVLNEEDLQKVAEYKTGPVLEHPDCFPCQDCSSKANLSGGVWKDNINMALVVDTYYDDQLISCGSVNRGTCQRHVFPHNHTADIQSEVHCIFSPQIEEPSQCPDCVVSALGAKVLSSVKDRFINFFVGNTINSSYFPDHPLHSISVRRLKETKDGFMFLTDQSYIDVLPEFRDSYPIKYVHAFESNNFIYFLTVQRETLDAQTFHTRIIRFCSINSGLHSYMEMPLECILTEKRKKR

## N10: N-methylated peptide of D4-3 ({CH2CO}-[dY]RQFNRRTH[NMeE]VWNLDC-NH2; thioether N-16; also: bridge 1-16 listed as disulfide) [Peptide N10]
c-Met-Fc; Table 8, c-Met-Fc
  Kd: 300 nM
  ka: 0.25 10^5 M^−1s^−1
  kd: 0.75 10^−2 s^−1

## N3: N-methylated peptide of D4-3 ({CH2CO}-[dY]R[NMeQ]FNRRTHEVWNLDC-NH2; thioether N-16; also: bridge 1-16 listed as disulfide) [Peptide N3]
c-Met-Fc; Table 8, c-Met-Fc
  Kd: 120 nM
  ka: 0.27 10^5 M^−1s^−1
  kd: 0.31 10^−2 s^−1

## N9: N-methylated peptide of D4-3 ({CH2CO}-[dY]RQFNRRT[NMeH]EVWNLDC-NH2; thioether N-16; also: bridge 1-16 listed as disulfide) [Peptide N9]
c-Met-Fc; Table 8, c-Met-Fc
  KD: Not binding

## CC(C)C[C@@H]1NC(=O)[C@H](CC(N)=O)NC(=O)[C@H](Cc2c[nH]c3ccccc23)NC(=O)[C@H](C(C)C)NC(=O)[C@H](CCC(=O)O)NC(=O)[C@H](Cc2c[nH]cn2)NC(=O)[C@H]([C@@H](C)O)NC(=O)[C@H](CCCNC(=N)N)NC(=O)[C@H](CCCNC(=N)N)NC(=O)[C@H](CC(N)=O)NC(=O)[C@H](Cc2ccccc2)N(C)C(=O)[C@H](CCC(N)=O)NC(=O)[C@H](CCCNC(=N)N)NC(=O)[C@@H](Cc2ccc(O)cc2)NC(=O)CSC[C@@H](C(=O)NCC(N)=O)NC(=O)[C@H](CC(=O)O)NC1=O [Peptide N4] ({CH2CO}-[dY]RQ[NMeF]NRRTHEVWNLDCG-NH2; thioether N-16; C-terminus assumed)
c-Met-Fc; Table 8, c-Met-Fc
  kd: 0.96 10^−2 s^−1
  kon: 120000 M⁻¹ s⁻¹
[1]; 37° C.
  remaining at 1 h, 1 μM: 21.1%

## D4-3 Bis-MAL-PEG3: dimeric peptide: two D4-3 macrocycles linked through C-terminal Cys by Bis-MAL-PEG3 linker ({CH2CO}-[dY]RQFNRRTHEVWNLDCGC; thioether N-16; not fully specified (residue 18); also: dimer: two copies joined by Bis-MAL-PEG3, linker at 18 via Bis-MAL-PEG3, other end not in the chain)
c-Met-Fc; [2]
  ka: 1.1 10^6 M^−1s^−1
  kd: 0.070 10^−2 s^−1
c-Met
  Activity (c-Met phosphorylation level by ELISA): Low
  c-Met phosphorylation: Promote

## CC(C)C[C@@H]1NC(=O)[C@H](CC(N)=O)NC(=O)[C@H](Cc2c[nH]c3ccccc23)NC(=O)[C@H](C(C)C)NC(=O)[C@H](CCC(=O)O)NC(=O)[C@H](Cc2c[nH]cn2)NC(=O)[C@H]([C@@H](C)O)NC(=O)[C@H](CCCNC(=N)N)N(C)C(=O)[C@H](CCCNC(=N)N)NC(=O)[C@H](CC(N)=O)NC(=O)[C@H](Cc2ccccc2)NC(=O)[C@H](CCC(N)=O)NC(=O)[C@H](CCCNC(=N)N)NC(=O)[C@@H](Cc2ccc(O)cc2)NC(=O)CSC[C@@H](C(=O)NCC(N)=O)NC(=O)[C@H](CC(=O)O)NC1=O [Peptide N7] ({CH2CO}-[dY]RQFNR[NMeR]THEVWNLDCG-NH2; thioether N-16; C-terminus assumed)
c-Met-Fc
  Binding ability (in words): do not show marked deterioration
c-Met-Fc; Table 8, c-Met-Fc
  kd: 6.9 10^−2 s^−1
  kon: 53000 M⁻¹ s⁻¹
[1]; 37° C.
  remaining at 1 h, 1 μM: 92%
[1]; human serum
  Stability in serum (in words): drastically improved

## CC(C)C[C@@H]1NC(=O)[C@H](CC(N)=O)NC(=O)[C@H](Cc2c[nH]c3ccccc23)N(C)C(=O)[C@H](C(C)C)NC(=O)[C@H](CCC(=O)O)NC(=O)[C@H](Cc2c[nH]cn2)NC(=O)[C@H]([C@@H](C)O)NC(=O)[C@H](CCCNC(=N)N)NC(=O)[C@H](CCCNC(=N)N)NC(=O)[C@H](CC(N)=O)NC(=O)[C@H](Cc2ccccc2)NC(=O)[C@H](CCC(N)=O)NC(=O)[C@H](CCCNC(=N)N)NC(=O)[C@@H](Cc2ccc(O)cc2)NC(=O)CSC[C@@H](C(=O)NCC(N)=O)NC(=O)[C@H](CC(=O)O)NC1=O [Peptide N12] ({CH2CO}-[dY]RQFNRRTHEV[NMeW]NLDCG-NH2; thioether N-16; C-terminus assumed)
c-Met-Fc; Table 8, c-Met-Fc
  kon: 55000 M⁻¹ s⁻¹

## C[C@@H]1NC(=O)[C@H](Cc2ccc(O)cc2)NC(=O)[C@H](Cc2ccc(O)cc2)NC(=O)[C@H](Cc2c[nH]c3ccccc23)NC(=O)[C@@H](Cc2ccc(O)cc2)NC(=O)CSC[C@@H](C(=O)NCC(N)=O)NC(=O)[C@@H]2CCCN2C(=O)[C@H](Cc2ccccc2)NC(=O)[C@H](C)NC(=O)[C@H](CCCCN)NC(=O)[C@H](Cc2ccc(O)cc2)NC(=O)[C@H]([C@@H](C)O)NC(=O)[C@H](CCC(N)=O)NC(=O)[C@H](CC(=O)O)NC(=O)[C@H](Cc2c[nH]c3ccccc23)NC1=O [Peptide D5-4] ({CH2CO}-[dY]WYYAWDQTYKAFPCG-NH2; thioether N-15)
c-Met-Fc; Table 10, c-Met-Fc
  Kd: 4.6 nM
  kon: 4.5e+06 M⁻¹ s⁻¹
[1]; Table 10, 2 h, 37° C.
  Stability in human serum (undegraded portion/time): 97%/2 h

## L5-2 Bis-MAL-PEG11: dimeric peptide: two L5-2 macrocycles linked through C-terminal Cys by Bis-MAL-PEG11 linker ({CH2CO}-YISWNEFNSPNWRFITCG[βAla]C-NH2; thioether N-17; not fully specified (residue 20); also: dimer: two copies joined by Bis-MAL-PEG11, linker at 20 via Bis-MAL-PEG11, other end not in the chain)
c-Met-Fc; [2]
  ka: 0.098 10^6 M^−1s^−1
  kd: 0.031 10^−2 s^−1
c-Met
  Activity (c-Met phosphorylation level by ELISA): Low
  c-Met phosphorylation: Promote

## D5-4 Bis-MAL-PEG3: dimeric peptide: two D5-4 macrocycles linked through C-terminal Cys by Bis-MAL-PEG3 linker (peptide 1 {CH2CO}-[dY]WYYAWDQTYKAFPCG; peptide 2 {CH2CO}-[dY]WYYAWDQTYKAFPCG; thioether I:N-I:15, II:N-II:15; not fully specified (C-terminus); also: dimer: two chains joined by Bis-MAL-PEG3 through an added C-terminal Cys not in the letters)
c-Met-Fc; [2]
  ka: 0.12 10^6 M^−1s^−1
  kd: 0.054 10^−2 s^−1
c-Met
  Activity (c-Met phosphorylation level by ELISA): High
  c-Met phosphorylation: Promote

## CC(C)C[C@@H]1NC(=O)[C@H](CC(N)=O)NC(=O)[C@H](Cc2c[nH]c3ccccc23)NC(=O)[C@H](C(C)C)NC(=O)[C@H](CCC(=O)O)NC(=O)[C@H](Cc2c[nH]cn2)NC(=O)[C@H]([C@@H](C)O)NC(=O)[C@H](CCCNC(=N)N)NC(=O)[C@H](CCCNC(=N)N)NC(=O)[C@H](CC(N)=O)NC(=O)[C@H](Cc2ccccc2)NC(=O)[C@H](CCC(N)=O)NC(=O)[C@H](CCCNC(=N)N)NC(=O)[C@@H](Cc2ccc(O)cc2)NC(=O)CSC[C@@H](C(=O)NCC(N)=O)NC(=O)[C@H](CC(=O)O)N(C)C1=O [Peptide N15] ({CH2CO}-[dY]RQFNRRTHEVWNL[NMeD]CG-NH2; thioether N-16; C-terminus assumed)
c-Met-Fc; Table 8, c-Met-Fc
  kon: 300000 M⁻¹ s⁻¹

## N5: N-methylated peptide of D4-3 ({CH2CO}-[dY]RQF[NMeN]RRTHEVWNLDC-NH2; thioether N-16; also: bridge 1-16 listed as disulfide) [Peptide N5]
c-Met-Fc; Table 8, c-Met-Fc
  Kd: 200 nM
  ka: 0.19 10^5 M^−1s^−1
  kd: 0.39 10^−2 s^−1

## CC(C)C[C@@H]1NC(=O)[C@H](CC(N)=O)NC(=O)[C@H](Cc2c[nH]c3ccccc23)NC(=O)[C@H](C(C)C)N(C)C(=O)[C@H](CCC(=O)O)NC(=O)[C@H](Cc2c[nH]cn2)NC(=O)[C@H]([C@@H](C)O)NC(=O)[C@H](CCCNC(=N)N)NC(=O)[C@H](CCCNC(=N)N)NC(=O)[C@H](CC(N)=O)NC(=O)[C@H](Cc2ccccc2)NC(=O)[C@H](CCC(N)=O)NC(=O)[C@H](CCCNC(=N)N)NC(=O)[C@@H](Cc2ccc(O)cc2)NC(=O)CSC[C@@H](C(=O)NCC(N)=O)NC(=O)[C@H](CC(=O)O)NC1=O [Peptide N11] ({CH2CO}-[dY]RQFNRRTHE[NMeV]WNLDCG-NH2; thioether N-16; C-terminus assumed)
c-Met-Fc; Table 8, c-Met-Fc
  kon: 15000 M⁻¹ s⁻¹

## N14: N-methylated peptide of D4-3 ({CH2CO}-[dY]RQFNRRTHEVWN[NMeL]DC-NH2; thioether N-16; also: bridge 1-16 listed as disulfide) [Peptide N14]
c-Met-Fc; Table 8, c-Met-Fc
  Kd: 290 nM
  ka: 0.21 10^5 M^−1s^−1
  kd: 0.59 10^−2 s^−1
